Patent publication US20220056094A1 (JIANGSU HENGRUI MEDICINE, published 2022)
Substitutions are numbered along the chain they refer to. In names and notes the source's numbering stands.

B1: IL-2-03 (Q11C/L132C) (ligand)
chain: MAPTSSSTKKTCLQLEHLLLDLQMILNGINNYKNPKLTRMLTFKFYMPKKATELKHLQCLEEELKPLEEVLNLAQSKNFHLRPRDLISNINVIVLELKGSETTFMCEYADETATIVEFLNRWITFAQSIISTCT
notes: The entry already carries the mutations and C125A and begins with M. Made in E. coli
B2: IL-2-05 (G27C/F78C) (ligand)
chain: B1 chain with C12Q, G28C, F79C, C133L
notes: as for B1
B3: IL-2-04 (L70C/P82C) (ligand)
chain: B1 chain with C12Q, L71C, P83C, C133L
notes: as for B1
B4: IL-2-22 (N26Q/N29S/F42A/N71Q/L72G) (ligand)
chain: B1 chain with C12Q, N27Q, N30S, F43A, N72Q, L73G, C133L
B5: IL-2-10 (N26Q/N30S/F42A/L72G) (ligand)
chain: B1 chain with C12Q, N27Q, N31S, F43A, L73G, C133L
notes: as for B1
B6: IL-2-08 (F42A/L72G) (ligand)
chain: B1 chain with C12Q, F43A, L73G, C133L
notes: as for B1
B7: IL-2-09 (Y45A/L72G) (ligand)
chain: B1 chain with C12Q, Y46A, L73G, C133L
notes: as for B1
B8: IL-2-07 (F42A/Y45A) (ligand)
chain: B1 chain with C12Q, F43A, Y46A, C133L
notes: as for B1
B9: IL-2-06 (… at positions 29-44 mutated into QSMHIDATL) (ligand)
chain: MAPTSSSTKKTQLQLEHLLLDLQMILNGIQSMHIDATLYMPKKATELKHLQCLEEELKPLEEVLNLAQSKNFHLRPRDLISNINVIVLELKGSETTFMCEYADETATIVEFLNRWITFAQSIISTLT
notes: The entry already carries the replacement and C125A and begins with M. Made in E. coli
B10: PEGylated IL-2-24 (ligand)
chain: B1 chain with C12Q, N27Q, N30S, N89R, C133L
modifications: mono-PEGylated with 20 kDa mPEG-butyraldehyde (sodium cyanoborohydride); site not stated

biological target: T1, his-tagged human IL-2Rα recombinant protein (SinoBiological, Cat #10165-H08H) (human, UniProt P01589 22-213); assay: ELISA, his-tagged IL-2Rα coated, HRP anti-IL-2 polyclonal detection
T1 construct: Bought protein; also called IL-2Rα (His Tag)
T1 sequence: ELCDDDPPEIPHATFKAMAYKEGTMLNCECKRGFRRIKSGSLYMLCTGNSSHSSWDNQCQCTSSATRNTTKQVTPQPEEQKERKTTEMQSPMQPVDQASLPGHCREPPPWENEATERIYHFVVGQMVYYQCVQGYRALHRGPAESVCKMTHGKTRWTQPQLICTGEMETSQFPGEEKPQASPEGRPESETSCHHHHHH
Experimental: 96-well microtiter plate was coated with 2 μg/mL his-tagged IL-2Rα recombinant protein (SinoBiological, Cat #10165-H08H), and incubated overnight at 4° C. The plate was washed with washing solution for three times, 250 μl per well. For each time of washing, the plate was shaken for 10 seconds to ensure sufficient washing. 200 μl/well blocking solution was added and incubated at room temperature for 2 hours. The plate was washed with washing solution for three times, 250 μl per well. For each time of washing, the plate was shaken for 10 seconds to ensure sufficient washing. […] The plate was incubated for 1 hour at room temperature. The plate was washed with washing solution for three times, 250 μl per well. […] The plate was incubated for 1 hour at room temperature. The plate was washed with washing solution for three times, 250 μl per well. 100 μl TMB was added to each well, and the reaction was performed for 15 minutes in the dark. 50 μl of 0.16 M sulfuric acid was added to each well.

| Binder | EC50 [nM] |
| --- | --- |
| B1 | 1.53 |
| B2 | 0.6 |
| B3 | 0.87 |

biological target: T2, high-affinity receptor IL-2Rα/β/γ on CTLL2 cells (mouse-derived cell line) (mouse, UniProt P01590 22-268; P16297 27-539; P34902 23-369); assay: cell-based or functional assay
T2 sequence (looked up) 1: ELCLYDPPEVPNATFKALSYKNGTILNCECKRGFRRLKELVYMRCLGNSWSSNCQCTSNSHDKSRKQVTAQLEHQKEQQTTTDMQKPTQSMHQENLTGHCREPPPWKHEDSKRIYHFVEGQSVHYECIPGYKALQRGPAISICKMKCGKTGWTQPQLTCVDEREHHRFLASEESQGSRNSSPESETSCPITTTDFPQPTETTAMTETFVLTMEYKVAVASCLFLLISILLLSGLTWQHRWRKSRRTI
T2 sequence (looked up) 2: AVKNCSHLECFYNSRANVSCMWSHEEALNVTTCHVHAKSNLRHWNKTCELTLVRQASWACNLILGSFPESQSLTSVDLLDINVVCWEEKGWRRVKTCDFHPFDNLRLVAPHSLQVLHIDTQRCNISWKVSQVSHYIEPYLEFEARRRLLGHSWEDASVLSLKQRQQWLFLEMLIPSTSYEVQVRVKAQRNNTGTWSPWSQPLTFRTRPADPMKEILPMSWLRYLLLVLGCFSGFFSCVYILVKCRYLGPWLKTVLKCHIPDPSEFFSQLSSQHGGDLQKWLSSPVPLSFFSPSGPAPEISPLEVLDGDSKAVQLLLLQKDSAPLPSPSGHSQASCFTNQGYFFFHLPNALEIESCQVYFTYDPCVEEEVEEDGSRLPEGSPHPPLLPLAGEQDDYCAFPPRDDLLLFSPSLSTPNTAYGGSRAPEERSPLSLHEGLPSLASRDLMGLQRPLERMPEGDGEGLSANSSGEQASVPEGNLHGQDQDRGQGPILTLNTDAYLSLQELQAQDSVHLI
T2 sequence (looked up) 3: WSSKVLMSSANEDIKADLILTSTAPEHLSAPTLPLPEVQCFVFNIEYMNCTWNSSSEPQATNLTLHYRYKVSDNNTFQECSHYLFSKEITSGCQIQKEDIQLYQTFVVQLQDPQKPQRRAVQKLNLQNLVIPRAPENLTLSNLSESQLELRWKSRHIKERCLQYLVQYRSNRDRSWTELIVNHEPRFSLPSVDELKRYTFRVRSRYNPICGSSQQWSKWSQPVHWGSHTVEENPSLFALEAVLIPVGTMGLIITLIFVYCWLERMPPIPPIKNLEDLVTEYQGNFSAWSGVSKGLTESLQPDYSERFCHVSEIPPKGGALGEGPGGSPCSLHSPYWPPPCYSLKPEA

| Binder | EC50 (CTLL2 cell proliferation) [nM] | relative biological activity (CTLL2 cell proliferation) [%] |
| --- | --- | --- |
| B4 | 5.73 | 0.9 |
| B5 | 4.8 | 1 |

biological target: T2, high-affinity receptor IL-2Rα/β/γ on …; assay: cell-based or functional assay; remark: another data set of the same source

| Binder | EC50 (STAT5 phosphorylation in CTLL2 cells) [nM] | relative biological activity (STAT5 phosphorylation in CTLL2 cells) [%] |
| --- | --- | --- |
| B6 | 3.93 | 0.25 |
| B7 | 4.02 | 0.25 |
| B8 | 2.45 | 0.41 |

biological target: T2, high-affinity receptor IL-2Rα/β/γ on …; assay: cell-based or functional assay; remark: another data set of the same source

| Binder | relative biological activity (CTLL2 cell proliferation) [%] |
| --- | --- |
| B9 | 4 |
| B1 | 162 |
| B6 | 7 |
| B7 | 2 |
| B8 | 4 |
| B2 | 229 |
| B3 | 176 |

biological target: T3, medium-affinity receptor IL-2Rβ/γ on human cells (Mo7e cell line; human CD8+T and NK cells) (human, UniProt P14784 27-551; P31785 23-369); assay: cell-based or functional assay
T3 sequence (looked up) 1: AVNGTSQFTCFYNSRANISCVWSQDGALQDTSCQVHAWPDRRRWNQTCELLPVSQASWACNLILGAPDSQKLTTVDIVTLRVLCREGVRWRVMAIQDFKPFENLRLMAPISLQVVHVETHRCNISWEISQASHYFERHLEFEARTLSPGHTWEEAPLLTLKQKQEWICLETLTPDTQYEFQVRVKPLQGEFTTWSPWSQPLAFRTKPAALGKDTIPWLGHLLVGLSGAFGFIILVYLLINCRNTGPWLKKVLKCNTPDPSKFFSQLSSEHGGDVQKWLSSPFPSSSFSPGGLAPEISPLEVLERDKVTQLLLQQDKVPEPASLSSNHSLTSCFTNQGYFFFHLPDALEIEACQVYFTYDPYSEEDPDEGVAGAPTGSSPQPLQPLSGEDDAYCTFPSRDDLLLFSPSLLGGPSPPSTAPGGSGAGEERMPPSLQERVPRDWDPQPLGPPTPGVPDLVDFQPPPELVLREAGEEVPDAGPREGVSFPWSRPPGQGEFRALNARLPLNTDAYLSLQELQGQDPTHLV
T3 sequence (looked up) 2: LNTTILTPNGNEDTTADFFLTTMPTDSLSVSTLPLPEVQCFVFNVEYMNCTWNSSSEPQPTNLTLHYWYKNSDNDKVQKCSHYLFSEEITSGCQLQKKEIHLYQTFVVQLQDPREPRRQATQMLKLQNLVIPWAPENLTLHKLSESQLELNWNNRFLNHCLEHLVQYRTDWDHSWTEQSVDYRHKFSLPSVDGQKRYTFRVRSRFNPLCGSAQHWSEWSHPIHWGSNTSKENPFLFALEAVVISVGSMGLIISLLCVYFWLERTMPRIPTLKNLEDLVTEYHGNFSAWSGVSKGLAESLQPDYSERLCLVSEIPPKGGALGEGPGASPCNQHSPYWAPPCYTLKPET

| Binder | EC50 (Mo7e cell proliferation) [nM] | relative biological activity (Mo7e cell proliferation) [%] |
| --- | --- | --- |
| B4 | 2.84 | 86 |
| B5 | 1.78 | 137 |

biological target: T4, IL-2 receptor IL-2Rα/β/γ on human peripheral blood Treg cells (human, UniProt P01589 22-272; P14784 27-551; P31785 23-369); assay: cell-based or functional assay
T4 sequence (looked up) 1: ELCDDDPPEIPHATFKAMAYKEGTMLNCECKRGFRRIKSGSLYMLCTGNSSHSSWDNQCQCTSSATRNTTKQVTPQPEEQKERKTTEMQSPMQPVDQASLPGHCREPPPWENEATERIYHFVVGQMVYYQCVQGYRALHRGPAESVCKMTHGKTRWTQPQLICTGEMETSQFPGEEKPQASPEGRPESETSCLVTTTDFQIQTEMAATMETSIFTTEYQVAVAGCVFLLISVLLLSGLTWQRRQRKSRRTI
T4 sequence (looked up) 2: T3 sequence (looked up) 1
T4 sequence (looked up) 3: T3 sequence (looked up) 2

| Binder | EC50 (STAT5 phosphorylation in human Treg cells) [nM] | relative biological activity (STAT5 phosphorylation in human Treg cells) [%] |
| --- | --- | --- |
| B10 | 6.02 | 0.007 |

biological target: T5, IL-2Rβ/γ-Fc heterodimer (IL-2Rβ-Fc-hole with IL-2Rγ-Fc-knob); assay: SPR (Biacore), IL-2Rβ/γ-Fc captured on Protein A chip, 1:1 model
T5 construct: Co-expressed in HEK293 cells and purified with Protein A and Superdex 200
T5 sequence (chain, as listed by the source limits assumed, chain 1 of 2): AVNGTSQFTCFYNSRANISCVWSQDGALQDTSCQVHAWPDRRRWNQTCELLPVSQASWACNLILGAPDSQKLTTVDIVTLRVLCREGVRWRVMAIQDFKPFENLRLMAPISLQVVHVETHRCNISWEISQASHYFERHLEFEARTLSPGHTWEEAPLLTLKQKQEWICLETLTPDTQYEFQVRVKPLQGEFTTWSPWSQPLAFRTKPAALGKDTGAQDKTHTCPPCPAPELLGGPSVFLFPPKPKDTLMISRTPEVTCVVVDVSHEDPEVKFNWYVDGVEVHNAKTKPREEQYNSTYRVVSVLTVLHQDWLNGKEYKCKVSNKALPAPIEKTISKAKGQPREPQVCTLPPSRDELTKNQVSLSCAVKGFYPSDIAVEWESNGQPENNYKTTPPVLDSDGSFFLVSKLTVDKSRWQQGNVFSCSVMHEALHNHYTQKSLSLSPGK
T5 sequence (chain, as listed by the source limits assumed, chain 2 of 2): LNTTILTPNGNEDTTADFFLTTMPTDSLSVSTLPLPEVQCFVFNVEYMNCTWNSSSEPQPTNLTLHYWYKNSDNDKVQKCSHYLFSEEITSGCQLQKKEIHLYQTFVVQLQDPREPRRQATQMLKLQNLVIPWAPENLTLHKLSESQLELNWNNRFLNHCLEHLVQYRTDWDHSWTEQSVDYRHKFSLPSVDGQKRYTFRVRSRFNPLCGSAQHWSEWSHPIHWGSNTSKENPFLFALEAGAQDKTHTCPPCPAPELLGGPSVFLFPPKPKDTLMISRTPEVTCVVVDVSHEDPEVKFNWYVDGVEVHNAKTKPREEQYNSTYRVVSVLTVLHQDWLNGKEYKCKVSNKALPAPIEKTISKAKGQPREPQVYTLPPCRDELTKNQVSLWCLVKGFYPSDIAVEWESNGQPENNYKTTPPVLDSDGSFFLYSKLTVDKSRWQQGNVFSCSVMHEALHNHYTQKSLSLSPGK
Experimental: The Protein A sensor chip (GE, Cat #29127556) of the Biacore instrument (Biacore T200, GE) was used to capture IL-2Rβ/γ-Fc, wherein IL-2Rβ/γ-Fc was diluted with 1×HBS-EP to 1 μg/mL, and flowed at a flow rate of 10 μL/min for 30 seconds. […] The Biacore instrument (Biacore X100, GE) was used to detect the reaction in real time, to obtain association and dissociation curves. After each cycle of dissociation was completed, the chip was washed and regenerated with 10 mM Gly-HCl pH 1.5.

| Binder | Kd [nM] | koff [s⁻¹] | kon [M⁻¹ s⁻¹] |
| --- | --- | --- | --- |
| B9 | 0.509 | 0.000436 | 856000 |
| B1 | 0.253 | 0.000135 | 533000 |
| B6 | 0.224 | 0.000206 | 920000 |
| B7 | 0.344 | 0.000222 | 646000 |
| B8 | 0.261 | 0.000215 | 822000 |
| B5 | 0.266 | 0.00043 | 1.62e+06 |
| B2 | 0.288 | 9.68e-05 | 336000 |
| B3 | 0.302 | 0.00015 | 498000 |
